This passage reports percentage of fluorescent cells in the FRET channel results from paper PMC6021247.

For test [1], the target named is rabbit APOBEC3A fused to Cherry (rA3A-Cherry) (rabbit). In words: FRET or BRET; flow cytometry-based FRET (FRET-FACS); HEK-293T cells 48 hours after co-transfection of a Cherry-fusion and a GFP-fusion plasmid; percentage of FRET+ cells gated on Cherry+ and GFP+ cells. (In BRET a luciferase serves as donor, and the signal depends on an acceptor being close.)
Test [2] has as its target rabbit TRIB3 pseudokinase fused to GFP (rTRIB3-GFP) (rabbit). The test is described as above.

On to “rabbit APOBEC3A fused to Cherry (rA3A-Cherry) (enzyme)”, for which the percentage of fluorescent cells in the FRET channel in test [1] worked out at 19%; in test [2] it was 11%.
